# Data taken from US20180172692.
# T1: β10*
# T1 chain: VSGWRLFKKIS
# T2: β9
# T2 chain: GSMLFRVTINS
# Legend:
# [1] = biological target: T1, β10*
# [2] = biological target: T2, β9
protein,measurement,setting,value
Δ11S (protein) MVFTLEDFVGDWEQTAAYNLDQVLEQGGVSSLLQNLAVSVTPIQRIVRSGENALKIDIHVIIPYEGLSADQMAQIEEVFKVVYPVDDHHFKVILPYGTLVIDGVTPNMLNYFGRPYEGIAVFDGKKITVTGTLWNGNKIIDERLITPD,"luminescence (furimazine substrate), fragments each at 1 µM",[1],the mixture of all three components is the only combination that produced significant luminescence
same,"luminescence (furimazine substrate), fragments each at 1 µM",[2],the mixture of all three components is the only combination that produced significant luminescence
